Results published in article PMC12923946 (Cell Reports Medicine, 2026).

T1: hMPV F-DS-CavEs2-IPDS (human metapneumovirus (strain not …, N-linked glycan at Asn172 (partially modelled)))
T1 chain: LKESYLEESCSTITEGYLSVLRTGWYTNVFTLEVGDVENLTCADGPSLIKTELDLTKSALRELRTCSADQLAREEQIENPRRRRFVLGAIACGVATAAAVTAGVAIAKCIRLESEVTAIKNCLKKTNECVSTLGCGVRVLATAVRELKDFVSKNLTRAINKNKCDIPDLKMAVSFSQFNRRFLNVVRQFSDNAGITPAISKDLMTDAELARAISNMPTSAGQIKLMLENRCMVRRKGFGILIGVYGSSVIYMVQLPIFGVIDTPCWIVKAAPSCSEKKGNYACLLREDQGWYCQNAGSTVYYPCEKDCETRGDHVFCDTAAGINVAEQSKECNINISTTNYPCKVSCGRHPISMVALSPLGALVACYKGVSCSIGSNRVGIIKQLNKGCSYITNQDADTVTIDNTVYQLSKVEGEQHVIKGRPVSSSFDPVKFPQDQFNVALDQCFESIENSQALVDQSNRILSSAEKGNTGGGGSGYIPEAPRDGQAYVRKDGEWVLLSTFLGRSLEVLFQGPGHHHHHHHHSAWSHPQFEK


Legend:
[1] = molecular target: RSV prefusion F trimer (competition assays) (human respiratory syncytial virus A, …, UniProt P03420, stabilised); test: ELISA
hMPV-F A1(NL/1/00) = hMPV-F A1(NL/1/00) (human metapneumovirus A1, strain NL/1/00, UniProt Q91F55, stabilised); test: ELISA
RSV-F A2 (DS-Cav-1) = RSV-F A2 (DS-Cav-1) (Human respiratory syncytial virus A, …, UniProt P03420, stabilised); test: ELISA
hMPV F-DS-CavEs2-IPDS = molecular target: T1, hMPV F-DS-CavEs2-IPDS; test: cryo-EM structure

Row | Binder | binding result [1] | binding result (hMPV-F A1(NL/1/00)) | binding result (RSV-F A2 (DS-Cav-1)) | stoichiometry N (hMPV F-DS-CavEs2-IPDS)
1 | RM 5-1 (antibody, V domains shown) VH: QGQLVQSGPEVKKPGATVKVSCRASAYPFGNYGITWVRQVPGQGLEWVGWISAYTGHTKFPQNFQGRVTLTADTSTSTGYMELRSLTSDDTAVYYCARGPCCSSPRPYDIWGQGTMVTVSS VL: DIQMTQSPSTLSASVGDRVTITCRASQSIDDWLAWYQHSPGKAPKLLIYRASRLESGVPSRFSGSGSGTEFTLTISSLQPDDFASYYCQQCYTYSQTFGQGTRVEIK | binds | binds | binds | 
2 | RM 5-1 Fab (Fab, V domains shown) VH: QGQLVQSGPEVKKPGATVKVSCRASAYPFGNYGITWVRQVPGQGLEWVGWISAYTGHTKFPQNFQGRVTLTADTSTSTGYMELRSLTSDDTAVYYCARGPCCSSPRPYDIWGQGTMVTVSS VL: DIQMTQSPSTLSASVGDRVTITCRASQSIDDWLAWYQHSPGKAPKLLIYRASRLESGVPSRFSGSGSGTEFTLTISSLQPDDFASYYCQQCYTYSQTFGQGTRVEIK |  |  |  | 3 Fabs per trimer
